From US20260098089A1

What was measured:
[1] = target: Human CD7 protein (soluble) (human) (UniProt P09564); test: SPR, captured mAb, global fit 1:1 model
[2] = target: Human CD7 on cells (CEM and other T-ALL cells, peripheral NK and T cells) (human) (UniProt P09564); test: cell-based or functional assay
[3] = target: Cynomolgus monkey (Macaca fascicularis) CD7 protein (soluble) (cynomolgus monkey (Macaca fascicularis)); test: SPR, captured mAb, global fit 1:1 model
Cynomolgus monkey (Macaca fascicularis) CD7 protein (soluble) (cynomolgus monkey (Macaca fascicularis)), sequence (chain, as listed by the source limits assumed): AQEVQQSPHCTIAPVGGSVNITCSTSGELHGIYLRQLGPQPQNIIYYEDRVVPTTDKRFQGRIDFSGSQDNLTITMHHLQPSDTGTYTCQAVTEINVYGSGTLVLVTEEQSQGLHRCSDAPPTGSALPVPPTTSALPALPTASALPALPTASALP

Human CD7 on cells (CEM and other T-ALL cells, peripheral NK and T cells) (human), sequence (P09564 26-238 limits assumed): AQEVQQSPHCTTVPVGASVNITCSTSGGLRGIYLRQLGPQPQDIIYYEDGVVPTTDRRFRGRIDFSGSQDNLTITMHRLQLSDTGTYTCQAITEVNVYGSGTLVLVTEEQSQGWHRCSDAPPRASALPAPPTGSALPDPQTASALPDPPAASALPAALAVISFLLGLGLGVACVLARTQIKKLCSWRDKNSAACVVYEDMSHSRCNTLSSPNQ
Human CD7 protein (soluble) (human), sequence (P09564 26-180 limits assumed): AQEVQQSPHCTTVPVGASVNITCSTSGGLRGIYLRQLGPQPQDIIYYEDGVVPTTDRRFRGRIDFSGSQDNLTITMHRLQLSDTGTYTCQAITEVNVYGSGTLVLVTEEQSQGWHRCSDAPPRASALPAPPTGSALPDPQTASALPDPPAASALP

Kd [1] [nM] | koff [1] [s⁻¹] | kon [1] [M⁻¹ s⁻¹] | CDC assay on CEM cells, EC50 (FIG. 1) [2] [nM] | EC50, CDC assay on CEM cells [2] [nM] | Kd [3] [nM] | koff [3] [s⁻¹] | kon [3] [M⁻¹ s⁻¹] | Substance | CDC assay on CEM cells, maximum killing (FIG. 1) [2] [%] | Maximum killing, CDC assay on CEM cells [2] [%]
0.279 | 0.000125 | 451000 | – | – | – | – | – | TH69 (antibody) | – | –
– | – | – | < 1 | 0.22 | – | – | – | RFT2 IgG1 E345R (antibody) | 100 | 98.5
6.22 | 0.0037 | 611000 | – | – | 50.8 | 0.0254 | 529000 | RFT2 IgG1 (antibody) | – | –
– | – | – | – | 0.21 | – | – | – | TH69 E345R (antibody) | – | 87.1
